# Measurements as given in patent publication US20200199204A1.
# Key:
# Assay in all cases: cell-based or functional assay
# [1] = molecular target: HIV-1 Env of WITO.33 (HIV-1)
# [2] = molecular target: HIV-1 Env of Q168.a2 (HIV-1)
# [3] = molecular target: HIV-1 Env of KER2008.12 (HIV-1)
# [4] = molecular target: HIV-1 Env of 96ZM651.02 (HIV-1)
# [5] = molecular target: HIV-1 Env of Q259.d2.17 (HIV-1)
# [6] = molecular target: HIV-1 Env of ZM233.6 (HIV-1)
# [7] = molecular target: HIV-1 Env of QH0692.42 (HIV-1)
# [8] = molecular target: HIV-1 Env of ZM53.12 (HIV-1)
# [9] = molecular target: HIV-1 Env of Q461.e2 (HIV-1)
# [10] = molecular target: HIV-1 Env of REJO.67 (HIV-1)
# [11] = molecular target: HIV-1 Env of RHPA.7 (HIV-1)
# [12] = molecular target: HIV-1 Env of CAP210.E8 (HIV-1)
# [13] = molecular target: HIV-1 Env of CAP256.SU (HIV-1)
# [14] = molecular target: HIV-1 Env of Q23.17 (HIV-1)
# [15] = molecular target: HIV-1 Env of KER2018.11 (HIV-1)
# [16] = molecular target: HIV-1 Env of ZM214.15 (HIV-1)
# [17] = molecular target: HIV-1 Env of 6405.v4.c34 (HIV-1)
# [18] = molecular target: HIV-1 Env of 6535.3 (HIV-1)
# [19] = molecular target: HIV-1 Env of TRO.11 (HIV-1)
# [20] = molecular target: HIV-1 Env of ZM249.1 (HIV-1)
# [21] = molecular target: HIV-1 Env of Q769.d22 (HIV-1)
# [22] = molecular target: HIV-1 Env of CNE3 (HIV-1)
# [23] = molecular target: HIV-1 Env of CAP45.G3 (HIV-1)
# [24] = molecular target: HIV-1 Env of SC422.8 (HIV-1)
# [25] = molecular target: HIV-1 Env of THRO.18 (HIV-1)
# [26] = molecular target: HIV-1 Env of ZM197.7 (HIV-1)
# [27] = molecular target: HIV-1 Env of DU156.12 (HIV-1)
# [28] = molecular target: HIV-1 Env of TH976.17 (HIV-1)
# [29] = molecular target: HIV-1 Env of TRJO.58 (HIV-1)
# [30] = molecular target: HIV-1 Env of MB201 (HIV-1)
# [31] = molecular target: HIV-1 Env of CAP256.PI (HIV-1)
# [32] = molecular target: HIV-1 Env of 191821.E6.1 (HIV-1)
# [33] = molecular target: HIV-1 Env of Q842.d12 (HIV-1)
# [34] = molecular target: HIV-1 Env of AC10.29 (HIV-1)
# [35] = molecular target: HIV-1 Env of MB539.2B7 (HIV-1)
# [36] = molecular target: HIV-1 Env of CAP244.D3 (HIV-1)
# [37] = molecular target: HIV-1 Env of DU422.01 (HIV-1)
# [38] = molecular target: HIV-1 Env of 0260.v5.c36 (HIV-1)
# [39] = molecular target: HIV-1 Env of 3016.V5.c36 (HIV-1)
# [40] = molecular target: HIV-1 Env of PVO.04 (HIV-1)
# [41] = molecular target: HIV-1 Env of CM244.ec1 (HIV-1)
# [42] = molecular target: HIV-1 Env of ZM135.10a (HIV-1)
# [43] = molecular target: HIV-1 Env of RW020.2 (HIV-1)
# [44] = molecular target: HIV-1 Env of BG505.w6m (HIV-1)
# [45] = molecular target: HIV-1 Env of CAAN.A2 (HIV-1)
# [46] = molecular target: HIV-1 Env of ZM109.4 (HIV-1)
# [47] = molecular target: HIV-1 Env of UG037.8 (HIV-1)
# [48] = molecular target: HIV-1 Env of DU172.17 (HIV-1)
# [49] = molecular target: HIV-1 Env of C1080.c3 (HIV-1)
substance,measurement,setting,value
CAP256-VRC26.22 (antibody),IC50,[1],> 50 µg/mL
same,IC50,[2],0.007 µg/mL
same,IC50,[3],1.23 µg/mL
same,IC50,[4],> 50 µg/mL
same,IC50,[5],0.005 µg/mL
same,IC50,[6],0.001 µg/mL
same,IC50,[7],> 50 µg/mL
same,IC50,[8],0.002 µg/mL
same,IC50,[9],4.1 µg/mL
same,IC50,[10],> 50 µg/mL
same,IC50,[11],> 50 µg/mL
same,IC50,[12],0.003 µg/mL
same,IC50,[13],0.002 µg/mL
same,IC50,[14],0.006 µg/mL
same,IC50,[15],0.002 µg/mL
same,IC50,[16],> 50 µg/mL
same,IC50,[17],> 50 µg/mL
same,IC50,[18],> 50 µg/mL
same,IC50,[19],> 50 µg/mL
same,IC50,[20],0.13 µg/mL
same,IC50,[21],> 50 µg/mL
same,"IC50 (neutralization, TZM-bl)",[22],> 50 µg/mL
same,IC50,[23],1.4 µg/mL
same,IC50,[24],> 50 µg/mL
same,IC50,[25],> 50 µg/mL
same,IC50,[26],0.09 µg/mL
same,IC50,[27],0.15 µg/mL
same,"IC50 (neutralization, TZM-bl)",[28],> 50 µg/mL
same,IC50,[29],> 50 µg/mL
same,IC50,[30],> 50 µg/mL
same,IC50,[31],> 50 µg/mL
same,IC50,[32],2.12 µg/mL
same,IC50,[33],0.63 µg/mL
same,IC50,[34],> 50 µg/mL
same,IC50,[35],17.9 µg/mL
same,IC50,[36],> 50 µg/mL
same,IC50,[37],0.012 µg/mL
same,IC50,[38],> 50 µg/mL
same,IC50,[39],0.022 µg/mL
same,IC50,[40],9.03 µg/mL
same,IC50,[41],4.54 µg/mL
same,IC50,[42],> 50 µg/mL
same,IC50,[43],> 50 µg/mL
same,IC50,[44],0.035 µg/mL
same,IC50,[45],> 50 µg/mL
same,IC50,[46],> 50 µg/mL
same,IC50,[47],> 50 µg/mL
same,IC50,[48],> 50 µg/mL
same,IC50,[49],0.013 µg/mL
